In paper PMC9004659:

Target: Recombinant human BAX (wild type) (human) (UniProt Q07812)
Assay: SEC

- share of the BAX population shifted toward oligomers: > 70%
Substance: Recombinant human BAX (wild type) (from UniProt Q07812-1) (natural protein)
